From PMC4743851 come the findings set out here.

Experiment [1] addresses Syntaxin-3 (endogenous, INS-1 832/13 cells) (rat (endogenous in INS-1 832/13)) (UniProt Q08849). The experiment in a line: co-IP; IP with 2 μg Syn-3 or Syn-1A antibody from 1 mg INS-1 832/13 lysate; cells at basal 0.8 mM glucose or stimulated with 16.7 mM glucose plus 10 nM GLP-1 for 30 min; blots quantified as percent recovery of total lysate input.
Experiment [2] concerns the target Syntaxin-1A (endogenous, INS-1 832/13 cells) (rat (endogenous in INS-1 832/13)) (UniProt P32851). The description is as above.
Experiment [3] concerns the target GST-Syn-3 (cytoplasmic domain a.a. 1–263) (UniProt Q08849). The experiment in a line: pull-down; GST-Syn-1A (1-265) or GST-Syn-3 (1-263) on glutathione agarose beads incubated with lysate of HEK293 cells transfected with Cav1.3 or Cav2.3, 4°C, 2 h; washed with 20 mM HEPES pH 7.4, 150 mM KOAc, 1 mM EDTA, 1 mM MgCl2, 5% glycerol, 0.1% Triton X-100; blots quantified as percent recovery.

For experiment [4], the target named is GST-Syn-1A (cytoplasmic domain a.a. 1–265) (UniProt P32851). The description is as above.
Experiment [5] has as its target Syn-3 expressed in HEK293 cells (UniProt Q08849). The experiment in a line: co-IP; HEK293 cells co-transfected with Cav1.3 or Cav2.3 and Syn-1A or Syn-3; IP with anti-Syn-1A or anti-Syn-3 antibody; blots quantified as percent recovery of total lysate input.
Experiment [6] deals with Syn-1A expressed in HEK293 cells (UniProt P32851). The experiment is described as above.

Sequence of Cav2.3 alpha1 subunit expressed in HEK293 cells, Q07652 1-2222 (natural protein) (Q07652 whole entry): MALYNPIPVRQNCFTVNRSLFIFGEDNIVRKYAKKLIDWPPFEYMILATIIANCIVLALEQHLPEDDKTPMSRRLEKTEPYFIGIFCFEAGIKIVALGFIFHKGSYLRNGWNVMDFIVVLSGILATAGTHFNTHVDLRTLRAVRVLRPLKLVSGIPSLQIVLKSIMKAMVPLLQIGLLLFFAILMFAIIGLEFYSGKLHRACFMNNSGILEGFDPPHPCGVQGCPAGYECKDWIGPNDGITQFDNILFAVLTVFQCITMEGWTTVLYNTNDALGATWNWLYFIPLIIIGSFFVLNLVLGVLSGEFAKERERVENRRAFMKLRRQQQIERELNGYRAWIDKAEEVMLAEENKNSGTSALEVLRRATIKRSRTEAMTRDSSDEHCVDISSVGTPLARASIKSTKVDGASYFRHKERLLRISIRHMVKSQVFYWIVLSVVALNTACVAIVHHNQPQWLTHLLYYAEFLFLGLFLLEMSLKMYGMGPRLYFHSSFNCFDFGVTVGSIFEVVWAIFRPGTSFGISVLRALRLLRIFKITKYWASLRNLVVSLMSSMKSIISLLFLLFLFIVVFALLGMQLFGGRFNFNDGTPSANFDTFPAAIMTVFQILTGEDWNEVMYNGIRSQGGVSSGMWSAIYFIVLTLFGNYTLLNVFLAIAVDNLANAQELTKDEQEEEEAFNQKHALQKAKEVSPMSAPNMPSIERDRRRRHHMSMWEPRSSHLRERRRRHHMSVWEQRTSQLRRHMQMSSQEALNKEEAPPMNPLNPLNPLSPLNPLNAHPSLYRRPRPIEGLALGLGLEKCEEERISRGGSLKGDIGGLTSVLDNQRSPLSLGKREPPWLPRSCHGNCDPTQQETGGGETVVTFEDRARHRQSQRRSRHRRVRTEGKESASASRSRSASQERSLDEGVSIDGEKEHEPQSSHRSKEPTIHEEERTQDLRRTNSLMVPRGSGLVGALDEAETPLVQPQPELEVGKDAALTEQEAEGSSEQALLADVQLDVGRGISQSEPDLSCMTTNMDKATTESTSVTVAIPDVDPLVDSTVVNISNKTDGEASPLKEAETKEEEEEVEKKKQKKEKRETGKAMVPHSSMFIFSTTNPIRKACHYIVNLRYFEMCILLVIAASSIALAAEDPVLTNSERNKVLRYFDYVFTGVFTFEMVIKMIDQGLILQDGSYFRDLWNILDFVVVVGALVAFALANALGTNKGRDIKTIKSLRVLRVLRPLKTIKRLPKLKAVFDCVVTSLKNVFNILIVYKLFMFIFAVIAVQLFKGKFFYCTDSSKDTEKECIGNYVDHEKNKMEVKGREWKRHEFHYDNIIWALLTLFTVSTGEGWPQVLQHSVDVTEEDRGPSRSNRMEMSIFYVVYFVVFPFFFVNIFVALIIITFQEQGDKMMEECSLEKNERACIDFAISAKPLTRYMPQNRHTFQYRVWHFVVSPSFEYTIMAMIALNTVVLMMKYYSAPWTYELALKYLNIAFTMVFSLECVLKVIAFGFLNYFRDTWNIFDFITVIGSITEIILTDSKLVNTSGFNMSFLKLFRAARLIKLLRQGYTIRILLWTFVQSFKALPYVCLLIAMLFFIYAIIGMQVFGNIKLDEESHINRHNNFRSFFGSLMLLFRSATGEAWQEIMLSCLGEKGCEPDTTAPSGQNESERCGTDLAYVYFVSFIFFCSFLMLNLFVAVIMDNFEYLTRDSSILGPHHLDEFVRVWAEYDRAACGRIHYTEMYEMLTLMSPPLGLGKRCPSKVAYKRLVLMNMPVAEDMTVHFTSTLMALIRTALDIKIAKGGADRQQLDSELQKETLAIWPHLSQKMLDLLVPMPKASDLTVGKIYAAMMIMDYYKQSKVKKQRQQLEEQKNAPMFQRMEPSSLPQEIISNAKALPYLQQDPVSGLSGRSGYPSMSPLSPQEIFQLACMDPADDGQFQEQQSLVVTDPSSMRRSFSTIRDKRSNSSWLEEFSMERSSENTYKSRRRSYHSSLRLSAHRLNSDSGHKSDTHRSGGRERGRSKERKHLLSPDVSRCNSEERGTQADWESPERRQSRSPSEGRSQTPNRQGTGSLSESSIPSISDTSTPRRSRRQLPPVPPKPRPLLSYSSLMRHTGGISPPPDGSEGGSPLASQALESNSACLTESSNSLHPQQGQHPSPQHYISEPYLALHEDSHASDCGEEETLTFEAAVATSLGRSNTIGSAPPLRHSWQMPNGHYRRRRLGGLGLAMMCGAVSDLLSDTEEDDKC
Sequence of Cav1.3 alpha1 pore-forming subunit (endogenous, INS-1 832/13 cells), P27732 1-2203 (natural protein) (P27732 whole entry): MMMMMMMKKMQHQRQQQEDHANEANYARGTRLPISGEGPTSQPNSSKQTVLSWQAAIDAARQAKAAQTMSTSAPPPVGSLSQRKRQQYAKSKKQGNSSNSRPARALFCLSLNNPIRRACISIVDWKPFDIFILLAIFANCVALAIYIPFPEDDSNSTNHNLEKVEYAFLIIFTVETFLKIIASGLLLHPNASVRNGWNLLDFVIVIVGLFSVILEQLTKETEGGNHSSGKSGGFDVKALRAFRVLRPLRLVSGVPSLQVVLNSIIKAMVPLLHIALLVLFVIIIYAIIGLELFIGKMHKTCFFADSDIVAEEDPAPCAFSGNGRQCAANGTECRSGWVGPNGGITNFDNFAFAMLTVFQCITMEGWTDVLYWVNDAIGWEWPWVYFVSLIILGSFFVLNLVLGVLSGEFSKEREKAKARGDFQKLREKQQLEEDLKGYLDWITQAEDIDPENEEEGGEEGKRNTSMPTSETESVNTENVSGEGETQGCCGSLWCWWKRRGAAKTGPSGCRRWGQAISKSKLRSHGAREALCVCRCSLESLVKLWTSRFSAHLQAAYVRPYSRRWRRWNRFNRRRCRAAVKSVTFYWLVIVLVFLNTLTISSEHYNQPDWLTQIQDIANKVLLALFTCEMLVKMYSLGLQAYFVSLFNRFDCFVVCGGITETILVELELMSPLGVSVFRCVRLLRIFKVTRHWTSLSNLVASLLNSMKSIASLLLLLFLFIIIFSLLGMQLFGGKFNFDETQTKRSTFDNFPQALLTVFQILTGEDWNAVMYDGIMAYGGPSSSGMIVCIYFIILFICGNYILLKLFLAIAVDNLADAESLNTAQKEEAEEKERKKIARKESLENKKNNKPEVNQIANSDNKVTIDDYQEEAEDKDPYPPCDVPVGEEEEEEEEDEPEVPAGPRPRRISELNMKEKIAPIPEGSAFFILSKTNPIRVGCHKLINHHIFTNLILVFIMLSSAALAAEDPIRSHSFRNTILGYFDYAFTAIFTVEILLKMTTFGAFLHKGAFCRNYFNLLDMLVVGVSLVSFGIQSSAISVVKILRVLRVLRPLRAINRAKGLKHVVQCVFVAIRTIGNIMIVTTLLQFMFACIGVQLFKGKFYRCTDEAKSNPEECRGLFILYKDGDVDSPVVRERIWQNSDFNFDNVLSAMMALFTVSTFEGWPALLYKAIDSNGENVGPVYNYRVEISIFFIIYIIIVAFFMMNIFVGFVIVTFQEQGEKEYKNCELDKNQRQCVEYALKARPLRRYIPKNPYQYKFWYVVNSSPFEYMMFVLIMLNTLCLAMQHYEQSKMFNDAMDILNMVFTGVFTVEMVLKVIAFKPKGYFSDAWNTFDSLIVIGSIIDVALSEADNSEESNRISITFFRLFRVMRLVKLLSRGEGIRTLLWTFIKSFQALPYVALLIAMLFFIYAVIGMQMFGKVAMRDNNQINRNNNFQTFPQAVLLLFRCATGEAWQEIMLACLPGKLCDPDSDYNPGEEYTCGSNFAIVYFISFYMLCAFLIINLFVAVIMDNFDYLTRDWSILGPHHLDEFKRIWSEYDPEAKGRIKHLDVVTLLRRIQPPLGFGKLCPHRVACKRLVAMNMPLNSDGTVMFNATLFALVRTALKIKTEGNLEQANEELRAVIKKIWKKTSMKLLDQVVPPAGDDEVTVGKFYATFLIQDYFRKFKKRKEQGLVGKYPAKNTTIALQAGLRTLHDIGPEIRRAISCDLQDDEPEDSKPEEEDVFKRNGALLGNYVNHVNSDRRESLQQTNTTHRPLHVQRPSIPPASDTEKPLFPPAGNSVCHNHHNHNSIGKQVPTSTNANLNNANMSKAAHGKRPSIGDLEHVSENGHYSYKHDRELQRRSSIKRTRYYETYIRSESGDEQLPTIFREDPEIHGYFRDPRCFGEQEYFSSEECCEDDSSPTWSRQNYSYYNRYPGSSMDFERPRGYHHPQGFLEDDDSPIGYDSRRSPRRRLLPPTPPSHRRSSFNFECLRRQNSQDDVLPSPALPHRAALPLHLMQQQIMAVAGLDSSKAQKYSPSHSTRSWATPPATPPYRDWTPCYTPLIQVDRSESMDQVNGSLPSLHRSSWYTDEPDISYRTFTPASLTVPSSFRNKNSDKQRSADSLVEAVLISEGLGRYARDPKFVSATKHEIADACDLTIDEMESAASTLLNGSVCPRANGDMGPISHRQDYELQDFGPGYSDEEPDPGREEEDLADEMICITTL
Sequence of Syntaxin-3 (endogenous, INS-1 832/13 cells) (rat (endogenous in INS-1 832/13)) (Q08849 whole entry): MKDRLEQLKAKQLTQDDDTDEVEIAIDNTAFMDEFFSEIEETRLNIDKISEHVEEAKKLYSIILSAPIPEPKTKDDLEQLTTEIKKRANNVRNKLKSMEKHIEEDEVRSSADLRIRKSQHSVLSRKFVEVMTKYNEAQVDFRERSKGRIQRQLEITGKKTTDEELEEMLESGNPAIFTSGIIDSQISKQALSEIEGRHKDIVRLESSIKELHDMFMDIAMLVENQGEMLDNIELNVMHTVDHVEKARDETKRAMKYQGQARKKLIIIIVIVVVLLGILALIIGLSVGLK
Sequence of Syntaxin-1A (endogenous, INS-1 832/13 cells) (rat (endogenous in INS-1 832/13)) (P32851 whole entry, the tested form may be a part): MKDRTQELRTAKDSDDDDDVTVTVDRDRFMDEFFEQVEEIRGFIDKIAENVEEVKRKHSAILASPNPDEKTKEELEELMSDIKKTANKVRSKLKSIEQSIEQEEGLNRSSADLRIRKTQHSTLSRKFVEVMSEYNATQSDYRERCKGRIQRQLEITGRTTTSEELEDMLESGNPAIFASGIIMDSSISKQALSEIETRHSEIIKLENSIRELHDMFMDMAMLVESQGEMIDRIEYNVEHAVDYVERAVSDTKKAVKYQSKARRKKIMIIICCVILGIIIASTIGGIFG

For “Cav1.3 alpha1 pore-forming subunit (endogenous, INS-1 832/13 cells), P27732 1-2203 (natural protein)”, in experiment [1], the percent recovery of total lysate input, basal (0.8 mM glucose) was 1.9 to 2% and the percent recovery of total lysate input, stimulated (16.7 mM glucose + 10 nM GLP-1) stood at 2%. In experiment [2], the percent recovery of total lysate input, basal (0.8 mM glucose) was found to be 1.9% and the percent recovery of total lysate input, stimulated (16.7 mM glucose + 10 nM GLP-1) was 15%.

On to “Cav2.3 alpha1 subunit expressed in HEK293 cells, Q07652 1-2222 (natural protein)”, for which the percent recovery of total lysate input in experiment [3] was found to be 20.1%; in experiment [4], 8.4%; in experiment [5] it was 6.1%; in experiment [6], 2.2%.

Turning to “Cav2.3 alpha1 pore-forming subunit (endogenous, INS-1 832/13 cells), Q07652 1-2222 (natural protein)”, in experiment [1], the percent recovery of total lysate input, basal (0.8 mM glucose) is 1.7% and the percent recovery of total lysate input, stimulated (16.7 mM glucose + 10 nM GLP-1) amounted to 8.1%.

For the substance “Cav1.3 alpha1 subunit expressed in HEK293 cells, P27732 1-2203 (natural protein)”, the percent recovery of total lysate input in experiment [3] amounted to 5.3%; in experiment [4], 25.7%; in experiment [5], 7.8%; in experiment [6] it was 18.1%.
